# US10000749B2, “Valencene synthase polypeptides, encoding nucleic acid molecules and uses thereof” (Evolva, Inc., priority 2013, dated 2018)
# “Also recorded” adds a separate entry of the source.
# Assays:
# ticks and mosquitoes = conditions: against ticks and mosquitoes; cited from earlier work
# [1] = test system: Saccharomyces cerevisiae strain ALX11-30; assay: Shake flask assay of cells expressing valencene synthase; format: cell-based; conditions: FIG. 7, cells expressing the synthase
# Description: Seed cultures were started in 250 mL flasks by inoculating 15 mL of SD or SDE medium (for ALX11-30 and ALX7-95 strains, respectively) with freshly growing colonies of the 7 strains shown in Table 5 above. The cultures were grown for 24 hours, and 2.5 mL of each culture were used to inoculate 50 mL of fermentation medium (2% ammonium sulfate, 2% potassium phosphate, 0.1% NaCl, 0.6% MgSO4.7H2O, 0.4% yeast extract, 1 mL mineral solution [FeSO4.7H2O 0.028%, ZnSO4.7H2O 0.029%, CuSO4.5H2O 0.008%, Na2MoO4.2H2O 0.024%, CoCl2.6H2O 0.024%, MnSO4.H2O 0.017%, HCl 1 mL], 0.5 mL 50% glucose, 1.5 mL vitamin solution [biotin 0.001%, Ca-pantothenate 0.012%, inositol 0.06%, pyridoxine-HCl 0.012%, thiamine-HCl 0.012%], and 0.5 mL 10% CaCl2) in a 250 mL baffled flask. The cultures were grown at 28° C. After 16 hours of incubation, the cultures were fed 3.6 mL of 50% glucose and 0.667 mL of 12.5% yeast extract. […] An aliquot of the organic phase was analyzed by gas chromatography and the amount of valencene produced was quantified by calculating the area under the peak representing valencene. […]
# Table 6a below provides product distribution profiles including the amount of valencene produced from the shake flask assay, as determined by gas chromatography, of CVS 277 compared to two strains that produce EGVS in the ALX11-30 strain (as described in Example 3).
# [2] = Steady state kinetic analysis of His-tag purified valencene synthases; format: biochemical
# Description: In this example, the activity of E. glaciale valencene synthase (EgVS; SEQ ID NO:1) and of the citrus valencene synthase designated V277 (SEQ ID NO:31) were evaluated by steady state kinetic analysis. To compare the activities of these enzymes in vitro, the valencene synthases were Histidine-tagged at the C-terminus, expressed in E. coli, purified by nickel chelate chromatography, and evaluated for activity by steady state kinetic analysis. […] T=30C. Detection: GC/MS-SIM.
molecule,measurement,setting,value
"C=C(C)[C@@H]1CCC2=CC(=O)C[C@@H](C)[C@]2(C)C1 [nootkatone, 4,4a,5,6,7,8-hexahydro-6-isopropenyl-4,4-a-dimethyl-2(3H)-naphthalenone]",Repellent and insecticide effect,ticks and mosquitoes,effective repellent and insecticide
"EgVS: Eryngium glaciale valencene synthase, amino acid sequence SEQ ID NO:1; His-tagged at the C-terminus for kinetics (protein, C-terminal His tag; Eryngium glaciale; valencene synthase protein, His-tagged at the C-terminus for kinetics) MSLNVLSTSGSAPTTKSSEITRRSANYHPSLWGDKFLEYSSPDHLKNDSFTEKKHEQLKEEVKKMLVETVQKPQQQLNLINEIQRLGLSYLFEPEIEAALQEISVTYDEFCCSTDADDLHNVALSFRILREHGHNVSSDVFQKFMDSNGKLKDYLVNDARGLLSLYEATHFRVHNDDKLEELLSVTTSRLEHLKSHVKYPLEDEISRALKHPLHKELNRLGARYYISIYEKFDSHNKLLLEFAKLDFNRLQKMYQHELAHLTRWWKDLDFTNKLPFARDRIVEGYFWILGMYFEPERKDVREFLNRVFALITVVDDTYDVYGTFKELLLFTDAIERWGTSDLDQLPGYMRIIYQALMDVYNQMEEKLSMKADCPTYRLEFAIETVKAMFRSYLEEARWSKEHYIPSMEEYMTVALVSVGYKTILTNSFVGMGDIATREVFEWVFNSPLIIRASDLIARLGDDIGGHEEEQKKGDAATAIECYIKENHVTKHEAYDEFQKQIDNAWKDLNKEALRPFPVPMTFITRVVHFTRAIHVIYADFSDGYTRSDKAIRGYITSLLVDPIPL",Valencene production in yeast compared to the CVS synthase,[1]; listed as EG synthase,more than twice the amount of valencene
same,Valencene production in yeast compared to the CVS synthase,[1]; listed as EVS,significantly greater
same,Turnover compared with valencene synthase V277,[2],turned over significantly more times
same,Total and specific activity compared with valencene synthase V277,"[2]; side-by-side comparison, FIG. 6",dramatically higher total and specific activity; also recorded: exhibits greater activity
